The source of these data is article doi:10.1101/639963.

By Kd is commonly meant the constant that tells how readily two partners part at equilibrium.

For data set [1], the target named is Myosin VI N-terminal tail fragment, large-insert isoform (NMVI_(TAIL(LI))). Put plainly: FRET or BRET. In general terms: BRET reads energy transfer from a luciferase to a nearby fluorophore.
Data set [2] has as its target Myosin VI N-terminal tail fragment, non-insert isoform (NMVI_(TAIL(NI))). Put plainly: FRET or BRET.
Data set [3] deals with Dab2 C-terminal region (residues 649-770) (UniProt P98082). In words: FRET or BRET.
Data set [4] has as its target Myosin VI tail, large-insert isoform (MVI_(TAIL(LI))). In words: FRET or BRET.
Data set [5] deals with nuclear dot protein 52 (NDP52/CALCOCO2) (UniProt Q13137). In words: FRET or BRET.
nuclear dot protein 52 (NDP52/CALCOCO2), sequence (Q13137 whole entry, the tested form may be a part, canonical isoform): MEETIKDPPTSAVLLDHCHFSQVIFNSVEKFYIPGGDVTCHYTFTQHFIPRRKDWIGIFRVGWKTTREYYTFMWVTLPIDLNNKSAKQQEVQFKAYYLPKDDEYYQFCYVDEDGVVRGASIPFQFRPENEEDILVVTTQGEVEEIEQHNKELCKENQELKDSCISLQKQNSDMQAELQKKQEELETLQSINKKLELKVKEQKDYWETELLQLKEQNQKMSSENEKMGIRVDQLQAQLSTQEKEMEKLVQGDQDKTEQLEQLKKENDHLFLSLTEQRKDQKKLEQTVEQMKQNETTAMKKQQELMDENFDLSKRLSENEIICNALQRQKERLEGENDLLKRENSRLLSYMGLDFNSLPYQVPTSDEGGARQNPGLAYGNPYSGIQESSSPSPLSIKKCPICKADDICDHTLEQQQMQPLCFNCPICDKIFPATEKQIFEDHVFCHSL
Data set [6] addresses Myosin VI tail, non-insert isoform (MVI_(TAIL(NI)), aa 814-1253). In words: FRET or BRET.
The target of data set [7] is T1, Dab2 C-terminal region (myosin VI binding site) (Homo sapiens, UniProt P98082 649-770).
T1 sequence: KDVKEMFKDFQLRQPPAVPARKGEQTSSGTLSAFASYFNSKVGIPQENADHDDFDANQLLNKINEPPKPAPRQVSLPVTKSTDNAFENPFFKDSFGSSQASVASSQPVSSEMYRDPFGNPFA
In words: fluorescence anisotropy. In general terms: Fluorescence polarisation rises when a labelled molecule tumbles more slowly, as on binding a larger partner.

Data set [8] concerns the target Myosin VI CBD (cargo-binding domain; non-insert isoform) (Homo sapiens, UniProt Q9UM54-5 1060-1253). In words: fluorescence anisotropy.

Molecule “Myosin VI C-terminal globular cargo binding domain (CBD) (domain or fragment)” had a Kd with 10 μM Dab2 in data set [1] of 6 µM. For the same molecule, the Kd with 10 μM NDP52 in data set [2] worked out at 4.1 µM.

The molecule “Myosin VI tail, large-insert isoform (MVI_(TAIL(LI))) (domain or fragment)” returned a Kd in data set [3] of 3.5 µM. In data set [4], this molecule yielded a Kd^DIMER with 20 μM Dab2 of 3.3 µM and a Kd^DIMER with 20 μM NDP52 of 9.3 µM. For the same molecule, the dissociation constant (Kd) in data set [5] is 17.3 µM.

Molecule “Myosin VI tail, non-insert isoform (MVI_(TAIL(NI)), aa 814-1253) (domain or fragment)” showed a Kd in data set [3] of 11.6 µM. In addition, in data set [6], the Kd^DIMER with 20 μM Dab2 was 5.3 µM and the Kd^DIMER with 20 μM NDP52 amounted to 4.3 µM. Further, the equilibrium dissociation constant (Kd) in data set [5] was 2.1 µM.

B1: ds40 FAM-DNA (40 bp) (dsDNA)
DNA 1: TTAGTTGTTCGTAGTGCTCGTCTGGCTCTGGATTACCCGC
DNA 2: GCGGGTAATCCAGAGCCAGACGAGCACTACGAACAACTAA
Consider B1, for which, in data set [7], the binding result is recorded as “no binding”. The Kd in data set [8] came out at 0.14 µM.
